Results from the supplement of paper PMC10065799, “High-throughput profiling of sequence recognition by tyrosine kinases and SH2 domains using bacterial peptide display” (eLife, 2023).

Target: FGFR3 (UniProt P22607)
Assay: phosphorylation enrichment, bacterial display (enrichment ratio); higher = better substrate or ligand; peptides without Tyr show the background
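Also: 11-residue human phosphosite peptides and single-mutation variants displayed on the E. coli surface, counted by deep sequencing, each peptide's frequency after selection divided by its frequency in the unselected input library; frequency after pTyr selection over input frequency; kinase dosed for 20-30% of maximal phosphorylation in three min.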

Sequence of FGFR3 (P22607 whole entry, looked up): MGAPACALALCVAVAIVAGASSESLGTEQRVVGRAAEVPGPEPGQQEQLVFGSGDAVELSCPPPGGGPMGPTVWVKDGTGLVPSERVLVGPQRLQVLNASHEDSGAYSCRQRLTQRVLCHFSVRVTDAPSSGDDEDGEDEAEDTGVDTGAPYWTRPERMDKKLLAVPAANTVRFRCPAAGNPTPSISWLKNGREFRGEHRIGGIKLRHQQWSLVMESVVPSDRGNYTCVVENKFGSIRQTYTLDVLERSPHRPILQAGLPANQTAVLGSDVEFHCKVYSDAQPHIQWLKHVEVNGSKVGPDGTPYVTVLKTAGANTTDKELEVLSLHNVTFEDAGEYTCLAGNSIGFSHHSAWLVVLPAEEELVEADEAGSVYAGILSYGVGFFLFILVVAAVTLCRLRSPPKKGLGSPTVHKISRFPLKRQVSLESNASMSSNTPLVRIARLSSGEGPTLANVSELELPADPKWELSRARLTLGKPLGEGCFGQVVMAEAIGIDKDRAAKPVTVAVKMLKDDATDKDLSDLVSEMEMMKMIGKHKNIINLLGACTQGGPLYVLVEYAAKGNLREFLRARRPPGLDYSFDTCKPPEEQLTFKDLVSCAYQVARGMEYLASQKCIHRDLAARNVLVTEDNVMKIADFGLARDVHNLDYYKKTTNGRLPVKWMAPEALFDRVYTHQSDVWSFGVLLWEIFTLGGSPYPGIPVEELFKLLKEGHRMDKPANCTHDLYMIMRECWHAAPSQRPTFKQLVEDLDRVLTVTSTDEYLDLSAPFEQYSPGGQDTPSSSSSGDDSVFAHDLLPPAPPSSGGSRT

| Sequence | phosphorylation enrichment |
| --- | --- |
| ANAYIYVVQLP [L1CAM_Y420] | 1.18 |
| NGSFLYVIISQ [LRP1B_Y1988_R1987L] | 0.88 |
| FRIGPYQPSVP [MATR3_Y784_N787S_YF] | 0.616 |
| AEVDTYCRHNY [HLA-DRB1_Y107_A103E] | 0.559 |
| EQKKYYNATKK [SCN5A_Y1495_M1498T] | 0.387 |
| RGMVMYTSKDR [ZG16B_Y136] | 0.645 |
| SRLDSYVRSLP [TRAPPC1_Y133] | 0.525 |
| PLRAYYLIARV [HLCS_Y635_D634Y] | 1.31 |
| LLIVEYAKYGS [RET_Y806] | 0.942 |
| SGPRRYTIATL [TTR_Y125_A129T] | 0.398 |
| TNDRLYLRSLE [MTM1_Y71_Y68D] | 0.503 |
| GGPTYYIDTNA [ACTL6A_Y69] | 0.963 |
| RAFRHYLLKQK [SCN2A_Y1919_R1918H_YF] | 1.68 |
| RTCSSYAIEKI [PARP15_Y520] | 0.629 |
| TTPGPYRSIFF [MPG_Y71_YF] | 1.07 |
| PPPPAYDDMAQ [TNK2_Y635_V638M] | 0.762 |
| PVKAAYQKVVA [HBB_Y131_Q128K] | 0.766 |

| Sequence | phosphorylation enrichment |
| --- | --- |
| SVVVPCEPPEV [TP53_Y220_Y220C] | 0.678 |
| RSAGKYDVFFI [MECP2_Y120_L124F_YF] | 1.53 |
| KDHPDYKFQRR [SOX10_Y171_P175R_YF] | 0.423 |
| EATKVYLDDPT [G6PD_Y322_G321V] | 0.656 |
| EATKGHLDDPT [G6PD_Y322_Y322H] | 0.664 |
| SLESAYPEVSQ [TTF1_Y357_G360V] | 0.611 |
| RYLTRYIYNRE [HLA-DQB1_Y62_V59L] | 0.772 |
| FGYPGYQCKHY [TIMP3_Y177_S179C] | 0.59 |
| ESMQSYDLDYP [UNC13B_Y243_D238E] | 0.686 |
| DEEFEYMNRRR [ERBB3_Y1199_YF] | 0.612 |
| AHAGEHGAEAL [HBA1_Y25_Y25H] | 0.451 |
| MSSHHCDYKKY [ZNF445_Y428_Y428C] | 0.437 |
| KPLMPCMRYSR [SMARCE1_Y73_Y73C] | 0.476 |
| PSDPSYEDTRE [BMPR1A_Y467_M470T] | 1.18 |
| QQPGPYDRPGA [HNRNPH2_Y210_R206Q] | 0.619 |
| IKAGAYDFPSL [CAMK2A_Y230_P235L] | 0.484 |

Tested on: Fer (mouse)
Assay: as above

| Sequence | phosphorylation enrichment |
| --- | --- |
| ANAYIYVVQLP [L1CAM_Y420] | 0.478 |
| NGSFLYVIISQ [LRP1B_Y1988_R1987L] | 0.663 |
| FRIGPYQPSVP [MATR3_Y784_N787S_YF] | 0.5 |
| AEVDTYCRHNY [HLA-DRB1_Y107_A103E] | 0.442 |
| EQKKYYNATKK [SCN5A_Y1495_M1498T] | 0.407 |
| RGMVMYTSKDR [ZG16B_Y136] | 0.413 |
| SRLDSYVRSLP [TRAPPC1_Y133] | 0.338 |
| PLRAYYLIARV [HLCS_Y635_D634Y] | 0.732 |
| LLIVEYAKYGS [RET_Y806] | 0.868 |
| SGPRRYTIATL [TTR_Y125_A129T] | 0.361 |
| TNDRLYLRSLE [MTM1_Y71_Y68D] | 0.411 |
| GGPTYYIDTNA [ACTL6A_Y69] | 0.407 |
| RAFRHYLLKQK [SCN2A_Y1919_R1918H_YF] | 1.49 |
| RTCSSYAIEKI [PARP15_Y520] | 0.371 |
| TTPGPYRSIFF [MPG_Y71_YF] | 0.368 |
| PPPPAYDDMAQ [TNK2_Y635_V638M] | 0.551 |
| PVKAAYQKVVA [HBB_Y131_Q128K] | 0.588 |

| Sequence | phosphorylation enrichment |
| --- | --- |
| SVVVPCEPPEV [TP53_Y220_Y220C] | 0.525 |
| RSAGKYDVFFI [MECP2_Y120_L124F_YF] | 0.519 |
| KDHPDYKFQRR [SOX10_Y171_P175R_YF] | 0.612 |
| EATKVYLDDPT [G6PD_Y322_G321V] | 0.451 |
| EATKGHLDDPT [G6PD_Y322_Y322H] | 0.55 |
| SLESAYPEVSQ [TTF1_Y357_G360V] | 0.4 |
| RYLTRYIYNRE [HLA-DQB1_Y62_V59L] | 0.813 |
| FGYPGYQCKHY [TIMP3_Y177_S179C] | 0.374 |
| ESMQSYDLDYP [UNC13B_Y243_D238E] | 0.495 |
| DEEFEYMNRRR [ERBB3_Y1199_YF] | 0.474 |
| AHAGEHGAEAL [HBA1_Y25_Y25H] | 0.419 |
| MSSHHCDYKKY [ZNF445_Y428_Y428C] | 0.388 |
| KPLMPCMRYSR [SMARCE1_Y73_Y73C] | 0.452 |
| PSDPSYEDTRE [BMPR1A_Y467_M470T] | 0.894 |
| QQPGPYDRPGA [HNRNPH2_Y210_R206Q] | 0.551 |
| IKAGAYDFPSL [CAMK2A_Y230_P235L] | 1.03 |

Target: Fes (UniProt P07332)
Assay: as above

Sequence of Fes (P07332 whole entry, looked up): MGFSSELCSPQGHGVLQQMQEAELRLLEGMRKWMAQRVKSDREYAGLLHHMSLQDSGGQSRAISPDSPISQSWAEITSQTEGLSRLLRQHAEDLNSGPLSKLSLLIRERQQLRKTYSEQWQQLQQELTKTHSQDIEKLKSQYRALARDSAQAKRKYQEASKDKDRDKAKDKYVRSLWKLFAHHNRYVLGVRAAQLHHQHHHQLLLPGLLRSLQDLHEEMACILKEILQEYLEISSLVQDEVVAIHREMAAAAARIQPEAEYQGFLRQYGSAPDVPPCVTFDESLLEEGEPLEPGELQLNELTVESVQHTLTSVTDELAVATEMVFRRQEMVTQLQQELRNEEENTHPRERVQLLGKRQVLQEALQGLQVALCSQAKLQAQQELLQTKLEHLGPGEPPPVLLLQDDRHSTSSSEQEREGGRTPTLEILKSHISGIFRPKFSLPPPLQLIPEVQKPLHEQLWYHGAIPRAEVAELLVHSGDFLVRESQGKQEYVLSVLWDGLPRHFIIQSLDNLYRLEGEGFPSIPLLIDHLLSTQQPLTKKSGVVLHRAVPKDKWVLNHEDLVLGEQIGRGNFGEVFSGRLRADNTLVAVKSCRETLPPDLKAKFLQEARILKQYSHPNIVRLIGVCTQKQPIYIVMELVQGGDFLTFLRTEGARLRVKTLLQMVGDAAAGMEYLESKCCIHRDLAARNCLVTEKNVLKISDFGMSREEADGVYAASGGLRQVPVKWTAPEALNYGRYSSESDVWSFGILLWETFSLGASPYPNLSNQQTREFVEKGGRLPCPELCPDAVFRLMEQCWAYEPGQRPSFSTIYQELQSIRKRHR

| Sequence | phosphorylation enrichment |
| --- | --- |
| ANAYIYVVQLP [L1CAM_Y420] | 1.17 |
| NGSFLYVIISQ [LRP1B_Y1988_R1987L] | 1.44 |
| FRIGPYQPSVP [MATR3_Y784_N787S_YF] | 0.868 |
| AEVDTYCRHNY [HLA-DRB1_Y107_A103E] | 0.98 |
| EQKKYYNATKK [SCN5A_Y1495_M1498T] | 0.54 |
| RGMVMYTSKDR [ZG16B_Y136] | 0.857 |
| SRLDSYVRSLP [TRAPPC1_Y133] | 0.666 |
| PLRAYYLIARV [HLCS_Y635_D634Y] | 1.12 |
| LLIVEYAKYGS [RET_Y806] | 2.4 |
| SGPRRYTIATL [TTR_Y125_A129T] | 0.44 |
| TNDRLYLRSLE [MTM1_Y71_Y68D] | 0.978 |
| GGPTYYIDTNA [ACTL6A_Y69] | 0.893 |
| RAFRHYLLKQK [SCN2A_Y1919_R1918H_YF] | 1.59 |
| RTCSSYAIEKI [PARP15_Y520] | 0.986 |
| TTPGPYRSIFF [MPG_Y71_YF] | 0.923 |
| PPPPAYDDMAQ [TNK2_Y635_V638M] | 1.04 |
| PVKAAYQKVVA [HBB_Y131_Q128K] | 0.823 |

| Sequence | phosphorylation enrichment |
| --- | --- |
| SVVVPCEPPEV [TP53_Y220_Y220C] | 1.18 |
| RSAGKYDVFFI [MECP2_Y120_L124F_YF] | 1.09 |
| KDHPDYKFQRR [SOX10_Y171_P175R_YF] | 0.631 |
| EATKVYLDDPT [G6PD_Y322_G321V] | 0.967 |
| EATKGHLDDPT [G6PD_Y322_Y322H] | 1.04 |
| SLESAYPEVSQ [TTF1_Y357_G360V] | 0.941 |
| RYLTRYIYNRE [HLA-DQB1_Y62_V59L] | 1.32 |
| FGYPGYQCKHY [TIMP3_Y177_S179C] | 0.806 |
| ESMQSYDLDYP [UNC13B_Y243_D238E] | 1.26 |
| DEEFEYMNRRR [ERBB3_Y1199_YF] | 1.18 |
| AHAGEHGAEAL [HBA1_Y25_Y25H] | 0.703 |
| MSSHHCDYKKY [ZNF445_Y428_Y428C] | 0.661 |
| KPLMPCMRYSR [SMARCE1_Y73_Y73C] | 0.791 |
| PSDPSYEDTRE [BMPR1A_Y467_M470T] | 2.73 |
| QQPGPYDRPGA [HNRNPH2_Y210_R206Q] | 1.39 |
| IKAGAYDFPSL [CAMK2A_Y230_P235L] | 0.647 |

Target: Fyn (UniProt P06241)
Assay: as above

Sequence of Fyn (P06241 whole entry, looked up): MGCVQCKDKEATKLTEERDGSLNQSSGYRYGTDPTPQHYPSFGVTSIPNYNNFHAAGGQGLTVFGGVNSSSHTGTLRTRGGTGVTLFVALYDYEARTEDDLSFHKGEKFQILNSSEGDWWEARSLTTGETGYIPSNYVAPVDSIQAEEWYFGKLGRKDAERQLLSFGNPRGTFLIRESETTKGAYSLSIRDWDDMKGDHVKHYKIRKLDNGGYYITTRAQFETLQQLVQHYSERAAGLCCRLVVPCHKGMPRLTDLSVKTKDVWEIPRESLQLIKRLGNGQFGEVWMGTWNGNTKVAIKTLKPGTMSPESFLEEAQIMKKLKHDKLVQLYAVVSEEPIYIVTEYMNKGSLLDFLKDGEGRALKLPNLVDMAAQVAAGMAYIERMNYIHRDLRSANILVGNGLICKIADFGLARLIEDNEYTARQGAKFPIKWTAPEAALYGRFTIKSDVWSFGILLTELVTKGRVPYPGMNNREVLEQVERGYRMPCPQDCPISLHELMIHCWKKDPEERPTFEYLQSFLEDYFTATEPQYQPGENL

| Sequence | phosphorylation enrichment |
| --- | --- |
| ANAYIYVVQLP [L1CAM_Y420] | 0.841 |
| NGSFLYVIISQ [LRP1B_Y1988_R1987L] | 0.367 |
| FRIGPYQPSVP [MATR3_Y784_N787S_YF] | 0.453 |
| AEVDTYCRHNY [HLA-DRB1_Y107_A103E] | 0.394 |
| EQKKYYNATKK [SCN5A_Y1495_M1498T] | 0.375 |
| RGMVMYTSKDR [ZG16B_Y136] | 0.493 |
| SRLDSYVRSLP [TRAPPC1_Y133] | 0.373 |
| PLRAYYLIARV [HLCS_Y635_D634Y] | 0.571 |
| LLIVEYAKYGS [RET_Y806] | 0.622 |
| SGPRRYTIATL [TTR_Y125_A129T] | 0.377 |
| TNDRLYLRSLE [MTM1_Y71_Y68D] | 0.458 |
| GGPTYYIDTNA [ACTL6A_Y69] | 0.926 |
| RAFRHYLLKQK [SCN2A_Y1919_R1918H_YF] | 1.16 |
| RTCSSYAIEKI [PARP15_Y520] | 0.302 |
| TTPGPYRSIFF [MPG_Y71_YF] | 0.514 |
| PPPPAYDDMAQ [TNK2_Y635_V638M] | 0.544 |
| PVKAAYQKVVA [HBB_Y131_Q128K] | 0.648 |

| Sequence | phosphorylation enrichment |
| --- | --- |
| SVVVPCEPPEV [TP53_Y220_Y220C] | 0.438 |
| RSAGKYDVFFI [MECP2_Y120_L124F_YF] | 0.678 |
| KDHPDYKFQRR [SOX10_Y171_P175R_YF] | 0.321 |
| EATKVYLDDPT [G6PD_Y322_G321V] | 0.444 |
| EATKGHLDDPT [G6PD_Y322_Y322H] | 0.584 |
| SLESAYPEVSQ [TTF1_Y357_G360V] | 0.447 |
| RYLTRYIYNRE [HLA-DQB1_Y62_V59L] | 1.11 |
| FGYPGYQCKHY [TIMP3_Y177_S179C] | 0.477 |
| ESMQSYDLDYP [UNC13B_Y243_D238E] | 0.536 |
| DEEFEYMNRRR [ERBB3_Y1199_YF] | 0.643 |
| AHAGEHGAEAL [HBA1_Y25_Y25H] | 0.354 |
| MSSHHCDYKKY [ZNF445_Y428_Y428C] | 0.472 |
| KPLMPCMRYSR [SMARCE1_Y73_Y73C] | 0.458 |
| PSDPSYEDTRE [BMPR1A_Y467_M470T] | 0.887 |
| QQPGPYDRPGA [HNRNPH2_Y210_R206Q] | 0.565 |
| IKAGAYDFPSL [CAMK2A_Y230_P235L] | 0.877 |
